For the assay, the target named is C-terminal SPA-tagged RpoB fusion protein (B. subtilis) (UniProt P37870). As to the kind of experiment: affinity purification with mass spectrometry.

From publication PMC3479203 come the findings set out here.

Sequence of UniProt P37870 (P37870 whole entry, the tested form may be a part): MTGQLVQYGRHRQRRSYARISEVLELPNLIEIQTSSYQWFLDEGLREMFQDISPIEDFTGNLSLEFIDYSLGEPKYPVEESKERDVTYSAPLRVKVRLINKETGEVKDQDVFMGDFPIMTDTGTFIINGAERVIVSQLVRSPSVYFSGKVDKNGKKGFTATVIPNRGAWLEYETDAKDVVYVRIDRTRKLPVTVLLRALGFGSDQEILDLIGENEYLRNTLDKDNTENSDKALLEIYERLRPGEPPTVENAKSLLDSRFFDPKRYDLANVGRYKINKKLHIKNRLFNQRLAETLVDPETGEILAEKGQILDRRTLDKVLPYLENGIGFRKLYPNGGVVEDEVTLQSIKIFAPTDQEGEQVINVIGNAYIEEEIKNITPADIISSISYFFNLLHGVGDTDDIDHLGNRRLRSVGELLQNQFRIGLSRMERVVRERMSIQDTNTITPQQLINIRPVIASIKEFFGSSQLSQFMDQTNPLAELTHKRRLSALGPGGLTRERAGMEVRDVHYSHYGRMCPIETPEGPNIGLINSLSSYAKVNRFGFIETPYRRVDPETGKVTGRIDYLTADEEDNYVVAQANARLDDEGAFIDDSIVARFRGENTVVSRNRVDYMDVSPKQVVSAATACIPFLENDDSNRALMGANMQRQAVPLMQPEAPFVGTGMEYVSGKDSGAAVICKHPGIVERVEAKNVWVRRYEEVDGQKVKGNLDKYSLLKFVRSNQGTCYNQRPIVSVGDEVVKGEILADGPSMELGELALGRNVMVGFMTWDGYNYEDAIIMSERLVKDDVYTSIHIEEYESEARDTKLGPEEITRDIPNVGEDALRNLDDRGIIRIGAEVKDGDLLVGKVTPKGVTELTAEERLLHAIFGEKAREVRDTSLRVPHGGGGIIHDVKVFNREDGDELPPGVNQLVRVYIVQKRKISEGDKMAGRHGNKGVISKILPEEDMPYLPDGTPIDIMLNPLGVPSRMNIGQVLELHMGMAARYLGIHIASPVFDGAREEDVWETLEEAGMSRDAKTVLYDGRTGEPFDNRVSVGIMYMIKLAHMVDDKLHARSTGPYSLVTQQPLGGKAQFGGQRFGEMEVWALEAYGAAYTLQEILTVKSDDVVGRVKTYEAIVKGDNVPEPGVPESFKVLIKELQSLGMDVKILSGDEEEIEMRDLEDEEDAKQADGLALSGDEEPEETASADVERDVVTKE

With “SigA (43 kDa) (from UniProt P06224 1-371) (natural protein)”, the relative fraction of RNAP bound to SigA, diamide stress amounted to 58.1% and the relative fraction of RNAP bound to SigA, no stress stood at 61.5%.

B1: Spx (15 kDa) (natural protein)
chain: MVTLYTSPSCTSCRKARAWLEEHEIPFVERNIFSEPLSIDEIKQILRMTEDGTDEIISTRSKVFQKLNVNVESMPLQDLYRLINEHPGLLRRPIIIDEKRLQVGYNEDEIRRFLPRKVRSFQLREAQRLAN
Regarding B1, the relative fraction of RNAP bound to Spx, diamide stress came out at 21.6% and the relative fraction of RNAP bound to Spx, no stress amounted to 11%.
